Measurements as given in paper PMC7418988, “IgaA negatively regulates the Rcs Phosphorelay via contact with the RcsD Phosphotransfer Protein” (PLoS Genetics, 2020).

B1: IgaA fused to the T18 or the T25 fragment of adenylate cyclase (natural protein, E. coli, UniProt P45800 1-711, looked up)
chain: MSTIVIFLAALLACSLLAGWLIKVRSRRRQLPWTNAFADAQTRKLTPEERSAVENYLESLTQVLQVPGPTGASAAPISLALNAESNNVMMLTHAITRYGISTDDPNKWRYYLDSVEVHLPPFWEQYINDENTVELIHTDSLPLVISLNGHTLQEYMQETRSYALQPVPSTQASIRGEESEQIELLNIRKETHEEYALSRPRGLREALLIVASFLMFFFCLITPDVFVPWLAGGALLLLGAGLWGLFAPPAKSSLREIHCLRGTPRRWGLFGENDQEQINNISLGIIDLVYPAHWQPYIAQDLGQQTDIDIYLDRHVVRQGRYLSLHDEVKNFPLQHWLRSTIIAAGSLLVLFMLLFWIPLDMPLKFTLSWMKGAQTIEATSVKQLADAGVRVGDTLRISGTGMCNIRTSGTWSAKTNSPFLPFDCSQIIWNDARSLPLPESELVNKATALTEAVNRQLHPKPEDESRVSASLRSAIQKSGMVLLDDFGDIVLKTADLCSAKDDCVRLKNALVNLGNSKDWDALVKRANAGKLDGVNVLLRPVSAESLDNLVATSTAPFITHETARAAQSLNSPAPGGFLIVSDEGSDFVDQPWPSASLYDYPPQEQWNAFQKLAQMLMHTPFNAEGIVTKIFTDANGTQHIGLHPIPDRSGLWRYLSTTLLLLTMLGSAIYNGVQAWRRYQRHRTRMMEIQAYYESCLNPQLITPSESLIE
notes: IgaA (E. coli homolog, gene yrfF), five-pass inner membrane protein; Two fusions of the same protein, each chain with ONE of the two tags: T18 (pEAW1) or T25 (pEAW2); also called YrfF; IgaA-T18; source: bacterial two-hybrid (BACTH) fusion, expressed from a plasmid in E. coli BTH101; not shown: T18 fragment of Bordetella adenylate cyclase (Cya), C-terminal, kept; T25 fragment of Bordetella …
B2: RcsD fused to the T25 or the T18 fragment of adenylate cyclase (natural protein, E. coli, UniProt P39838 1-890, looked up)
chain: MRQKETTATTRFSLLPGSITRFFLLLIIVLLVTMGVMVQSAVNAWLKDKSYQIVDITHAIQKRVDNWRYVTWQIYDNIAATTSPSSGEGLQETRLKQDVYYLEKPRRKTEALIFGSHDNSTLEMTQRMSTYLDTLWGAENVPWSMYYLNGQDNSLVLISTLPLKDLTSGFKESTVSDIVDSRRAEMLQQANALDERESFSNMRRLAWQNGHYFTLRTTFNQPGHLATVVAFDLPINDLIPPGMPLDSFRLEPDATATGNNDNEKEGTDSVSIHFNSTKIEISSALNSTDMRLVWQVPYGTLLLDTLQNILLPLLLNIGLLALALFGYTTFRHFSSRSTENVPSTAVNNELRILRAINEEIVSLLPLGLLVHDQESNRTVISNKIADHLLPHLNLQNITTMAEQHQGIIQATINNELYEIRMFRSQVAPRTQIFIIRDQDREVLVNKKLKQAQRLYEKNQQGRMIFMKNIGDALKEPAQSLAESAAKLNAPESKQLANQADVLVRLVDEIQLANMLADDSWKSETVLFSVQDLIDEVVPSVLPAIKRKGLQLLINNHLKAHDMRRGDRDALRRILLLLMQYAVTSTQLGKITLEVDQDESSEDRLTFRILDTGEGVSIHEMDNLHFPFINQTQNDRYGKADPLAFWLSDQLARKLGGHLNIKTRDGLGTRYSVHIKMLAADPEVEEEEERLLDDVCVMVDVTSAEIRNIVTRQLENWGATCITPDERLISQDYDIFLTDNPSNLTASGLLLSDDESGVREIGPGQLCVNFNMSNAMQEAVLQLIEVQLAQEEVTESPLGGDENAQLHASGYYALFVDTVPDDVKRLYTEAATSDFAALAQTAHRLKGVFAMLNLVPGKQLCETLEHLIREKDVPGIEKYISDIDSYVKSLL
notes: RcsD, phosphotransfer protein of the Rcs phosphorelay, inner membrane protein, 890 aa; Two fusions of the same protein, each chain with ONE of the two tags: T25 (pEAW8) or T18 (pEAW7); also called RcsD-T25; RcsD-T18; source: bacterial two-hybrid (BACTH) fusion, expressed from a plasmid in E. coli BTH101; not shown: T25 fragment of Bordetella adenylate cyclase (Cya), C-terminal, kept; T18 fragment …

Key:
[1] = molecular target: B2; experiment: two-hybrid; bacterial adenylate cyclase two-hybrid (BACTH): T18 and T25 fragments fused C-terminally to the two proteins, two plasmids in cyaA deficient E. coli BTH101; beta-galactosidase activity (Miller units) against fusion plus empty cognate vector as background; threshold for reliable interaction 4x over background; IgaA/RcsD also tested in rcsB, rcsC, rcsF and rcsD mutant hosts; in the rows the T25 fusion is …; conditions: partners not purified
[2] = molecular target: B1; experiment: as above; conditions: partners not purified

Row | beta-galactosidase activity [1] [Miller units] | beta-galactosidase activity, fold over either fusion paired with an empty cognate vector [1] [fold] | beta-galactosidase activity, fold over either fusion paired with an empty cognate vector [2] [fold] | beta-galactosidase level, fold over the single construct (background) controls [2] [fold] | Binder
1 | ≥ 1000 | ~20 |  |  | B1
2 |  |  | ~20 | > 30 | B2
